From patent publication US7431923

Target: T1, GST-EC2 (GST fusion of extracellular loop 2 of human CD63, amino acids 108-202) (human, UniProt P08962 108-202)
T1 construct: range 108-202; Expressed in E. coli BL-21; on blots as total bacterial lysate, in BIAcore captured by immobilised anti-GST antibody; Vector-encoded residues between GST and the loop are not described; also called EC2 fusion polypeptide; not shown: glutathione S-transferase as encoded by the bacterial expression vector PGEX-4T-2 (Amersham Biosciences)
T1 sequence (looked up): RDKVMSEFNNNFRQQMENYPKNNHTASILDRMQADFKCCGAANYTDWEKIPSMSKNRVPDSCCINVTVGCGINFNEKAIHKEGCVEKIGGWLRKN
Test: BIAcore, steady state; GST-EC2 captured on immobilised anti-GST antibody, antibody injected at 12.5 to 200 nM; KD as reciprocal of KA

B1: 7BD-33-11A monoclonal antibody (hybridoma ATCC PTA-4890) (antibody, V domains shown)
VH: EVQLQQSGPGLVKPGASVKMSCKASGYTFTSYVMHWVKQMPGQGLEWIGYITPYNDGTKYNEKFKGKATLTSDKSSSTAYMDLSSLTSEDSAVYYCVYGSRYDWYFDVWGAGTTVTVSS
VL: NIMMTQSPSSLAVSAGEKVTMSCKSSQSVLYSSNQKNYLAWYQQKPGQSPKLLIYWASTRESGVPDRFTGSGSGTDFTLTISSVQAEDLAVYYCHQYFSSYTFGGGTKLEIK
Kd: 135 nM
